Results as given in the DeepSol protein solubility set.

Assay: soluble on expression in E. coli; label from the status in PepcDB or PDB records

Row | Sequence | soluble on expression in E. coli
1 | MHVALHTVRMYPRNTSMVAIPSRELSPRRDGFRELLETNYQKRDLVHLTAGSVVPLLKNSIWLVVRGMVKLGAVSVHGDELLLGLAGPNEPFGEPLSTVEAYEAVALSDCDLLCLSANEVEQAPQLALAMMDAIGARYRQAEYMLALLGLRRVEERVRGFLEMLAQDYGQPCDDGLRLNLRLTHQEMASALSTTRVTVTRVIGLLRDEGWLKIDAQRHLVIAHLPRR | not soluble
2 | MSKLKKKEYEQELKKLQVELVKLQEWVKHKGLKVVVLFEGRDAAGKGGVIKRITEKLNHRVCRVVALPAPTEKEKTQWYFQRYVAHLPSAGEIVLFDRSWYNRAGVEKVMGFCTPDEYEEFLRSCPEFERMLQRSGIILLKYWFSVSDEEQEKRFLGRINTPIKRWKFSPMDLESRHRWAEYSEAKDKMFAYTDTKNCPWWVVPSDSKQKARLNCISHLLSQIEYKALEYPPIELPEINKEGYVRAPIDDQTFVPDKY | not soluble
3 | MSLAKRIVGSTPKQDGFRMPGEFEPQEKVWMIWPERPDNWRDGGKPVQEAFTNVAKAISQFTPMNVVVSQQQFQNCRRQLPPEITVYEMSNNDAWVRDCGPSFVINDHGEIRGVDWTFNAWGGLVDGLYFPWDQDDLVAQKICEIEHVDSYRTDDFVLEGGSFHVDGQGTVLTTEMCLLSEGRNPQLSKEAIEQKLCDYLNVEKVLWLGDGIDPEETNGHVDDVACFIAPGEVACIYTEDQNSPFYEAAQDAYQRLLKMTDAKGRQLKVHKLCCPVKNVTIKGSFKIDFVEGTMPREDGDICIASYMNFLITNDGVIVPQYGDENDHLALEQVQTMFPDKKIVGVNTVEVVYGGGNIHCITQQEPKREGGSHHHHHH | soluble
4 | GPGSMGIPLPKPVMTQLQERYGNTIFRCGSNCVNGYRETMEDAHLTYLTDSWGFFGVFDGHVNDQCSQYLERAWRSAIEKESIPMTDERMKELALQIDQEWMDSGREGGSTGTFFVALKEGNKVHLQVGNVGDSRVVACIDGVCVPLTEDHKPNNEGERQRIENCAGRVENNRVDGSLAVSRAFGDREYKLGSGSQLEQKVIALADVQHKDLTFNSNDFVLLCCDGVFEGNFPNEEVVAYVKQQLETCNDLAEVAGSVCEEAIERGSRDNISCMIVQFKDGSDYAAAPHTTVVPGPFSAPRNSGFRKAYESMADKGNTTVGALLEKRYDTLKAAEALTPEETEELSQFENGPEAKLTGAERQKWFSNYFQKLCEAASNGPSDQMERLQSLQQQAGIPLSILLSLMGEQTQ | soluble
5 | MILDKKSYDLLSYLLKLETPETVMAISHALNQSRRKVYYQLDKINQALPKGVDQIISYPRLGILLTADQKAACRLLLEEVTDYNYVMKSDERRRLSSIYIAVSTERVTIDKLMQINDVSRNTILNDLTELREELEDKQYKIQLHATKARGYYFGCHPMALIQYLYKLLVDVYQGGNTSFIDIFNRKLSEIQGLSVYFSKDILTYFHEYLFLSQASLGKTINTQDSQFMLQILPFMLLSYRNMRLDSETKSALKQEFHLIWKRKEYHIAQDLARELYHNFKLHLDDIEVSMVAMLMLSFRKDQDHHVESQDYDDMRATISHFIDQLESRYQLHFTHKQDLLKRLTTHCKALVYRKAYGIFLVNPLTDHVKEKYEELFAMTQSCATILEQDWTISLTDDDIAYLTIHLGGELRHNNTEQEKTKLVIVSDDGIGIQKLLFKQCQRYLANGQIEAVFTTEQYQSVYDLLAVDMIVATTDTLKTKIPMLIVNPILSDDDIIKLIRFSKQGRLSEHSRFSTELTKAIEAVVKDESDRYALVSKIEKLIHRELL | not soluble
6 | MDYKFPKDFMFGTSTASYQIEGGWNEDGKGENIWDRLVHTSPEVIKDGTNGDIACDSYHKYKEDVAIIKDLNLKFYRFSISWARIAPSGVMNSLEPKGIAYYNNLINELIKNDIIPLVTMYHWDLPQYLQDLGGWVNPIMSDYFKEYARVLFTYFGDRVKWWITFNEPIAVCKGYSIKAYAPNLNLKTTGHYLAGHTQLIAHGKAYRLYEEMFKPTQNGKISISISGVFFMPKNAESDDDIETAERANQFERGWFGHPVYKGDYPPIMKKWVDQKSKEEGLPWSKLPKFTKDEIKLLKGTADFYALNHYSSRLVTFGSDPNPNFNPDASYVTSVDEAWLKPNETPYIIPVPEGLRKLLIWLKNEYGNPQLLITENGYGDDGQLDDFEKISYLKNYLNATLQAMYEDKCNVIGYTVWSLLDNFEWFYGYSIHFGLVKIDFNDPQRTRTKRESYTYFKNVVSTGKP | soluble
7 | MAHHHHHHMGDNIEKRYSLALYNVGKKNKKINEITSDILFIKNNFLKDKSFLNFLHTPNIESREKLNFLKTECKKYNNNFSPITSNFLESLFDSKRIKFLQKIIEEFELLLMKERKEIKCVVYTAKEINNNEKQKIQESILFKLKNELKPLIEYKIDKSILGGLVLQIGNQVFDFSAKYKIEKIRSTLS | not soluble
8 | MSLGKFLVEREQMRYPVDVYTGKIQAYPEGKPSAIAKIQVDGELMLTELGLEGDEQAEKKVHGGPDRALCHYPREHYLYWAREFPEQAELFVAPAFGENLSTDGLTESNVYMGDIFRWGEALIQVSQPRSPCYKLNYHFDISDIAQLMQNTGKVGWLYSVIAPGKVSADAPLELVSRVSDVTVQEAAAIAWHMPFDDDQYHRLLSAAGLSKSWTRTMQKRRLSGKIEDFSRRLWGKEGGSHHHHHH | soluble
9 | GKDFTYNASLTFSHARNEIRNMDEPATKTAYRKQEGHPINQYFGLVCDGFVTQADLNNPDFPVSTFGNVQVGDLKYRDMNGDGFIDSRDETFIGYSDVPENTYALSLGCEYKGIGFSIMFQGVDHVSRYYDAEAMYAFVNGGKVKEHHLNRWNPNQSEAYNLTHASYPLLHYDSYGDHNQRKNSFFLKNGNFLRLKNIELSYSLPARWIRKVAMNECRVYVNANNLITWDKLDGLCDPESEGSNRYPIMKTVNFGVNIKF | not soluble
10 | MSSQMKAFLNELQGNMEVVGEFFDNPEKVIRKFGIVGREKEALLIRDLNDMDDYALSIQNSVASPSGAHSSTCHFVRQDLQSA | not soluble
11 | MGSDKIHHHHHHMSAELPLVFSVTSGKGGVGKTNMSVNIACCLSRMGKRVVLLDADLGLANVDVVLGLAPPRNLFHLFHEGADLGSILCEMPYGFRILPASSGVGEMLSLSTGQKLDLLEAMDVLEDSVDYLLVDTGAGINDNVLYFNIAAQERIVVLTPEPTSLTDAYALIKVMKLNHGVEHFKVLVNMAGDMKAAREVFSRLYKACDHFLSGVSLDLLGYVPRDRTVRRAVVEQTPFCVLDSRSPASLAVQKVAETVQTWDVSASLDGNIKFFWKKLLFR | not soluble
12 | MPAAAPGKNFDLSHWKLQLPDANTTEISSANLGLGYTSQYFYTDTDGAMTFWAPTTGGTTANSSYPRSELREMLDPSNSKVNWGWQGTHTMKLSGKTVQLPSSGKIIVAQIHGIMDDGTNAPPLVKAVFQDGQLDMQVKQNSDGTGSDVHNYFTGIKLGDLYNMEIRVTDGVAYVTMNGDTRSVDFVGKDAGWKNLKYYFKAGNYVQDNTSTGGSAIAKLYSLSVSHSNLEHHHHHH | soluble
13 | MAAARIPMSDNLPWKTWTPDDLAPPPAEFVPMAESEETIIEEVEPSLEQQLAQLQMQAHEQGYQAGIAEGRQQGHEQGYQEGLAQGLEQGLAEAKAQQAPIHARMQQLVSEFQTTLDALDSVIASRLMQMALEAARQVIGQTPTVDNSALIKQIQQLLQQEPLFSGKPQLRVHPDDLQRVDDMLGATLSLHGWRLRGDPTLHPGGCKVSADEGDLDASVATRWQELCRLAAPGVV | soluble
14 | VQLVRLLEEKIKSLQIEIENLRKELNYYKAEMEKMLSPPLIEAVVLDVLPDGRVLVRSSSGPNLVVNIASHIDQKLIKPGISVALNQRGSTILEVLPQKEDPIVKTMEIIERPN | not soluble
